Assay results published in paper PMC6996649, “Rational Engineered C-Acyltransferase Transforms Sterically Demanding Acyl Donors” (ACS Catalysis, 2019).

Substrate: CC(=O)c1c(O)cc(O)cc1O
Assay: purified protein
Format: biochemical, Pseudomonas protegens
Conditions: disproportionation to DAPG, 100 mM potassium phosphate pH 7.5, 35 °C

B1: PpATaseCH (Pseudomonas protegens Pf-5) (protein)
chain: MCARRVAIVSAAYTPKPGSSRVRQTFKEMIVESAYKALKDAKMHPREIQAVAYGYHGEGISEYGGLGPTISDALGISPAPTFMSTANCTSSSVSFQMGHQMVASGEYDIVLCGGFEKMTDHFNYAEYIGSSTECEYDYFLGISHTDAFALATAEYFQKFGYAGREADVLATFGRQMRIYAQNTPTATRYGQPIPSLEVLKNSEACGSMLAWGEASGCAILVAEHLAHKYTDKPVFVRGCAYTGVSHYFGTRFHNPTLHHPGLPKDVGMAVSANSIACAEIAYKKAGITAKDIDVAQVYDLLGAGLIQMESMGICGKGQAGDFVLEGGIALDGQLPLNTDGGNIGRGHASGCDGILHITELFRQLRGESDNQVKGARIGVSQNLGGYAAHNSVIVLSND
notes: PhlABC multi-subunit acyltransferase from codon-harmonized construct, recombinant in E. coli, purified enzyme; with 2,4-diacetylphloroglucinol biosynthesis acyltransferase subunit PhlA; 2,4-diacetylphloroglucinol biosynthesis acyltransferase subunit PhlB
With B1 the Km was 290 ± 40 µM, the Vmax was 4830 µM/min and the kcat was 72 ± 8 s⁻¹. It also gave a kcat/Km of 251000 ± 15000 M⁻¹ s⁻¹.
